From patent US20150086558A1 (ACADEMIA SINICA, published 2015)

Experiments:
[1] = biological target: T1, P1 peptide, junction peptide of CH4-CεmX (SVNPGLAGGSAQSQRAPDRVL) (human); assay: ELISA screen of hybridomas on coated P1 peptide
T1 construct: Synthetic peptide coated on ELISA plates at 10 ug/mL
T1 peptide: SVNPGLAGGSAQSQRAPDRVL
Experimental: Hybridoma cells secreting antibodies with the desired antigen-binding activities were screened as follows. Microtiter plates were coated by incubating with 10 μg/mL of P1 peptide and various other peptides or 1 μg/mL of various recombinant CεmX-fusion proteins in carbonate buffer, 0.1M, pH 9.6, overnight at 4° C. The wells were blocked with 1% BSA in PBS, pH=7.3 for 1 hour and incubated with the antisera or control antibodies at various dilutions for 1 hour at 37° C. After washing, the ligand-bound antibodies were detected by HRP-conjugated goat anti-mouse IgG, Fcγ fragment specific (Jackson ImmunoResearch) at 1:10,000 and incubated for 1 hour at 37° C., followed by incubation with TMB substrate (Clinical Scientific Products). The OD was determined at 450 nm. Positive clones were selected for further characterization.

[2] = biological target: T2, P1.15 peptide SVNPGLAGGSAQS (human); assay: ELISA on coated synthetic peptide
T2 peptide: SVNPGLAGGSAQS

[3] = biological target: T3, IgE.CH3-CH4 recombinant protein (UniProt P01854 211-426, limits assumed); assay: ELISA on coated recombinant protein
T3 construct: domain: CH3-CH4; Recombinant protein coated at 1 ug/mL in ELISA
T3 sequence (P01854 211-426 limits assumed): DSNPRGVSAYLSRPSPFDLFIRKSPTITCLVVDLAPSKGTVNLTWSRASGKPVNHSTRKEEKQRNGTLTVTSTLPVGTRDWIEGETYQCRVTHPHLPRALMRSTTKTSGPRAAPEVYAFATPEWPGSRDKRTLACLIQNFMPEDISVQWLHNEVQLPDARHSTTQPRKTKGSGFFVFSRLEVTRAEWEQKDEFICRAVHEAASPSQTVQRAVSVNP

B1: monoclonal anti-IgE antibody mAb 5A8 (antibody, V domains shown)
VH: QVQLKQSGPGLVAPSQSLSITCTVSGFSLTDYGVNWVRQPPGKGLEWLGMIWGDGSTDYNSTLKSRLSISKDNSKSQVFLKINSLQTDDTARYYCALNWFAYWGQGTLVTAAA
VL: NIVMTQSPAIMSASPGEKVTMTCSASSSVNYMHWYQQKSGTSPKRWIYDTSKLASGVPARFSGSGSGTSYSLTISSMEAEDAATYYCQQWSSNPWTFGGGTKLEIK
notes: Mouse hybridoma monoclonal antibody; It was detected with anti-mouse IgG reagents
Q: Does B1 bind [1]?
A: binds

B2: monoclonal anti-IgE antibody mAb 2H9 (antibody, V domains shown)
VH: QVQMQQPGAELVRPGASVKMSCRTSGYTFTNYNVHWLKQTPGQGLEWIGGMYPGNDDILYNQNFKDRATLTADRSSSTAYIQLRSLTSEDSAVYYCTRSGLQGPWFDYWGQGTLVTVSA
VL: DIQMTQSSSYLSVSLGGRVTISCRASDHINNWLAWYQQKPGNAPRLLISSATSLETGVPSRFSGSGSGKDYSLTIISVQTEDVATYYCQQCWITPFTFGSGTKLEIK
notes: Mouse hybridoma monoclonal antibody from BALB/c mice immunized with HBcAg-P1; It was detected with anti-mouse IgG reagents
Q: Does B2 bind [2]?
A: binds

Q: Does B2 bind [3]?
A: no binding

Q: Does B2 bind [1]?
A: binds
